Measurements: paper PMC9430930

These sequences were tested on NupR (NagR2) (Bacillus thuringiensis BMB171), ORF:032de0b7 (assay: EMSA). Details: NupR: 10 mM Tris-HCl pH 7.5, 50 mM NaCl, 0.5 mM DTT, 4% glycerol, 200 ng poly(dI-dC), 25 C 30 min, ComK/CcpA/PurR: 10 mM Tris-HCl pH 8.0, 50 mM KCl.

Sequence | binding
CGCATTTCAATTATTCGACCTCTGATGTAAGACTTCTTTTCTCTTTTTTCAACTTACAACATAGTACAAATGACTAAACACCAAAATAAGTGTAATTGTCGAATAAATAATAATAATTTTTTAAAATAAAATTTTCACTCTTTATTGCATAAAAAAAACTTTGCACCATAAACATTCCTCATTTCGAGAAAAAGTTCGGCACAAAGATCCTTTACATCCTTTGTTACACACTTTTCCCCTCATAGTCTAGCAATTCATGGTTGCC (double strand) [nagR2 (nupR) promoter] | binds
CTAATACAACACGGTTAATACCTTTTTTCATTTCAAAATTCCTCGCAATTTCATTGATTTTATTATGTAAGATAATACGTCTTACTTCTATAGAGTCATATCTAGTTTATTACATTTTATAAAAGATATTCAAGTATTTGAAAATGTATCCGTGCAAATCCGCGAACAAAACATAGGAATTCAGTGAACCGAATATAATTCAGTAAAATCCTTTGTAAAAGGGGAAATGGCATGG (double strand) [ldh promoter] | binds
GGTGAAATAGTATGGTCATCACGTAATAAAGTATCATCTAAATCTAAAACAATCATTTTATAAGTCATATAGAAAATTCCTTTCTTTAATTGAAATCAAAATACATGTTCATGAAGATGTTGAGGAATAATAGTAAGACATCAAACCTCTTTGAAAAGAAGTAGATAAATTATTATGAGTTGTTGCTCATAATATTGGTTAATAATCATTGGGGAAGAATAAAACCCCAATGATTAAAGTTTGATTTTATCGTAACAACTCTAAAGGTAGAGTGCAATAATGGAAGTT (double strand) [had promoter] | binds
TGCATACTTACTCACCATCCCATTAGAACAATCTAATTTTTTGAGTTGTCATACCACTACAATAATGTGAATTCGACAATTTTTGATATGAAATAATGCATAATATATATAAAATTCGGCAAATTTTTCATACAATTCATCTCACATACAATAATAGATTAGGAGTGTTATAGATGAATTATAG (double strand) [baci promoter] | binds
